Source: US20210024639A1 (AGOMAB THERAPEUTICS, published 2021)
Numbering of substitutions follows the chain as printed.

Legend:
[1] = target: T1, human MET extracellular domain (ECD) (human, UniProt P08581 25-932); assay: ELISA, periplasmic Fab on MET ECD
T1 construct: range 1-932; recombinant ECD; also called hMET; human MET ECD
Description: (§1) Fab-expressing phages from the libraries described above were produced according to standard phage display protocols. For selection, phages were first adsorbed to immobilized recombinant human MET ECD, washed, and then eluted using trypsin. After two cycles of selection with human MET ECD, two other cycles were performed in the same fashion using mouse MET ECD. In parallel, we also selected phages alternating a human MET ECD cycle with a mouse MET ECD cycle, for a total of four cycles. Phages selected by the two approaches were pooled together and then used to infect TG1 E. coli. Individual colonies were isolated and secretion of Fabs was induced using IPTG (Fermentas). The Fab-containing periplasmic fraction of bacteria was collected and tested for its ability to bind human and mouse MET ECD by Surface Plasmon Resonance (SPR). Human or mouse MET ECD was immobilized on a CM-5 chip using amine coupling in sodium acetate buffer (GE Healthcare). The Fab-containing periplasmic extracts were loaded into a BIACORE 3000 apparatus (GE Healthcare) with a flow rate of 30 μl/min. The Fab off-rates (koff) were measured over a two minute period. Binding of Fabs to human and mouse MET was further characterized by ELISA using MET ECD in solid phase and periplasmic crude extract in solution.
(§2) TABLE 7 Fabs binding to both human MET (hMET) and mouse MET (mMET). Fabs are grouped in families based on their VH CDR3 sequence. Binding of Fabs to human and mouse MET ECD was determined by Surface Plasmon Resonance (SPR) and by ELISA. SPR values represent the koff (s⁻¹). ELISA values represent the Optical Density (OD) at 450 nm (AU, arbitrary units). Both SPR and ELISA were performed using crude periplasmic extracts. Fab concentration in the extract was not determined. Values are the mean of three independent measurements.

[2] = target: T2, mouse MET extracellular domain (ECD) (mouse, UniProt P16056 25-931); assay: ELISA, periplasmic Fab on MET ECD
T2 construct: range 1-931; recombinant ECD; also called mMET; mouse MET ECD
Description: as §1, §2

[3] = target: T3, native mouse MET on living mouse cells (mouse, UniProt P16056 25-1379); assay: cell-based or functional assay
[4] = target: T4, native human MET on living human cells (human, UniProt P08581 25-1390); assay: cell-based or functional assay
[5] = target: T5, human MET-Fc chimeric protein (R&D Systems) (human, UniProt P08581 25-932); assay: competition ELISA, hMET-Fc in solid phase, competitor 0.3 nM biotinylated hHGF
T5 construct: extracellular domain; bought (R&D Systems); also called hMET; not shown: Fc portion of human IgG1
Description: (§3) To investigate along this line, we tested the competition between mAbs and HGF by ELISA. Recombinant human and mouse HGF (R&D Systems) were biotinylated at the N-terminus using NHS-LC-biotin (Thermo Scientific). MET-Fc protein, either human or mouse (R&D Systems), was immobilized in solid phase and then exposed to 0.3 nM biotinylated HGF, either human or mouse, in the presence of increasing concentrations of antibodies (0-120 nM).
(§4) A MET-Fc chimeric protein (either human or mouse) was immobilized in solid phase and exposed to a fixed concentration of biotinylated HGF (either human or mouse), in the presence of increasing concentrations of antibodies. […] Antibody-HGF competition is expressed as IC₅₀ (the concentration that achieves 50% competition) and IMAX (the maximum % competition reached at saturation).

[6] = target: T3, native mouse MET on living mouse cells; assay: cell-based or functional assay; remark: listed apart in the source
[7] = target: T4, native human MET on living human cells; assay: cell-based or functional assay; remark: listed apart in the source
[8] = target: T4, native human MET on living human cells; assay: flow cytometry, A549 cells
Description: (§5) We also analysed whether chimeric anti-MET antibodies bound to native human and mouse MET in living cells. […] Antibody binding to cells was analysed by flow cytometry using phycoerythrin-conjugated anti-human IgG1 antibodies (eBioscience) and a CyAn ADP analyser (Beckman Coulter). As a positive control for human MET binding, we used a commercial mouse anti-human MET antibody (R&D Systems) and phycoerythrin-conjugated anti-mouse IgG1 antibodies (eBioscience). As a positive control for mouse MET binding we used a commercial goat anti-mouse MET antibody (R&D Systems) and phycoerythrin-conjugated anti-goat IgG1 antibodies (eBioscience). […] Consistent with the data obtained in ELISA, maximal binding (EMAX) varied depending on antibody, but was similar in human and mouse cells.

[9] = target: T6, mouse MET-Fc chimeric protein (R&D Systems) (mouse, UniProt P16056 25-929, limits assumed); assay: competition ELISA, mMET-Fc in solid phase, competitor 0.3 nM biotinylated mHGF
T6 construct: bought (R&D Systems); also called mMET; not shown: Fc
Description: as §3, §4

[10] = target: T3, native mouse MET on living mouse cells; assay: flow cytometry, MLP29 cells
Description: as §5

T1 sequence (P08581 25-932 limits assumed, form in doubt): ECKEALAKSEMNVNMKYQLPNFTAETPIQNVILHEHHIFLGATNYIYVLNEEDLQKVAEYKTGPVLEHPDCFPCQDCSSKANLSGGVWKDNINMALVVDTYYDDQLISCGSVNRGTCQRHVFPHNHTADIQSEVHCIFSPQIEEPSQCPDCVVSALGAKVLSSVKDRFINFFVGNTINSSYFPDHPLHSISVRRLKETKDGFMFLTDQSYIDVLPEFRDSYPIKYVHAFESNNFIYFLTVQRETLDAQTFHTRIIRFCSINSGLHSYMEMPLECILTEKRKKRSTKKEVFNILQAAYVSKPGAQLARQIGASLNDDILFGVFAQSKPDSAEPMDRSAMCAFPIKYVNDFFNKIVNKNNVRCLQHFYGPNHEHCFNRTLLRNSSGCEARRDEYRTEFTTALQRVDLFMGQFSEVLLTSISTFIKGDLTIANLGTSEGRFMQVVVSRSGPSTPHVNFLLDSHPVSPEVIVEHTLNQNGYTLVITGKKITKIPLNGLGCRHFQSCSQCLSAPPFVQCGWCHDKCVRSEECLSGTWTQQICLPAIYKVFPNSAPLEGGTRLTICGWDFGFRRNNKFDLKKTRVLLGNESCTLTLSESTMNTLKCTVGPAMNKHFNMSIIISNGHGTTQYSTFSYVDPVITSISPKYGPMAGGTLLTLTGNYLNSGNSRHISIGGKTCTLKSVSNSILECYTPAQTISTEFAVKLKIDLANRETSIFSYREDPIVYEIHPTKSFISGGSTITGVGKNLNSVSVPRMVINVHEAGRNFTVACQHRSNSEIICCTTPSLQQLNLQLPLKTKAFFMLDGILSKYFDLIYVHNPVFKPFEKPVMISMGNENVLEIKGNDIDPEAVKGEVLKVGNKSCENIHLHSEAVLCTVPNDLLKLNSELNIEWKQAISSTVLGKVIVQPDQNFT
T4 sequence (P08581 25-1390): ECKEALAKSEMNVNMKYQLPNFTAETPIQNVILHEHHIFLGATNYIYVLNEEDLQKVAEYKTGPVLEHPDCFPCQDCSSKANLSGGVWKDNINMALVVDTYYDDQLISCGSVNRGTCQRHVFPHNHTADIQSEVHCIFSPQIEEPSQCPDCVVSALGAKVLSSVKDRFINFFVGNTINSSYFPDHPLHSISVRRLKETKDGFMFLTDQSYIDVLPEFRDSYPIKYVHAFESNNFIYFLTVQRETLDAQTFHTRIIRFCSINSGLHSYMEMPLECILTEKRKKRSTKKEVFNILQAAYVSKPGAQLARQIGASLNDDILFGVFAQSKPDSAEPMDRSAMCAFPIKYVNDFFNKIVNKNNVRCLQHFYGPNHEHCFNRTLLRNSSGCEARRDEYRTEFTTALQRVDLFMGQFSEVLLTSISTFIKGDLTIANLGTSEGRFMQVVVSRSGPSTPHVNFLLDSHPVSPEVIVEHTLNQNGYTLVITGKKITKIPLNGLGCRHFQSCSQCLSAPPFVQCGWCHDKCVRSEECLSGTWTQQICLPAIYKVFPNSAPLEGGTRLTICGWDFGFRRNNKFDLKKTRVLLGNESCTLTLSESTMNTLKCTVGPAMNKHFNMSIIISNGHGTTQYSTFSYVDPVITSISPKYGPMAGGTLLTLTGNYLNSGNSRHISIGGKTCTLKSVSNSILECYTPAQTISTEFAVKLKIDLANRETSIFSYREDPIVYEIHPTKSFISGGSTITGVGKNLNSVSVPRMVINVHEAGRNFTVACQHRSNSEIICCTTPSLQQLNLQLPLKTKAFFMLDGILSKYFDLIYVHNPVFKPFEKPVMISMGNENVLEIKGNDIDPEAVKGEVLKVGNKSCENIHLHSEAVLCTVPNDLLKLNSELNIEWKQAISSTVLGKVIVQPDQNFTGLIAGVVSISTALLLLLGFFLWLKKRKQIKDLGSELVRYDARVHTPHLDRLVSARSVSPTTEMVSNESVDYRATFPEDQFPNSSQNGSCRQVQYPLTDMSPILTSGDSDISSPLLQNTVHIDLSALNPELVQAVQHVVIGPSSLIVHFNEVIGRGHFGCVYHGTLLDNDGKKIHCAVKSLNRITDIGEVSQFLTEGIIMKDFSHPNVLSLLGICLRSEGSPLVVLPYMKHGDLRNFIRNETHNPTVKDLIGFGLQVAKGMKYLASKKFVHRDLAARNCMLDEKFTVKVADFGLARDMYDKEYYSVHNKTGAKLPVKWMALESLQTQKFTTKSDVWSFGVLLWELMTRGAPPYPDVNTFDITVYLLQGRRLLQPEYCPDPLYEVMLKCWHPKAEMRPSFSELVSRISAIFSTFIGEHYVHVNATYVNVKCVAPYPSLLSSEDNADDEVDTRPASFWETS
T5 sequence (P08581 25-932, change not shown): as the sequence (P08581 25-932 limits assumed, form in doubt) above

B1: Fab 71G2 (Fab, V domains shown)
VH: EVQLQESGGGLVQPGGSLRLSCAASGFTFSIYDMSWVRQAPGKGLEWVSTINSDGSSTSYVDSVKGRFTISRDNAKNTLYLQMNSLKPEDTAVYYCAKVYGSTWDVGPMGYGMDYWGKGTLVTVSS
VL: SSALTQPSALSVSLGQTARITCQGGSLGSSYAHWYQQKPGQAPVLVIYGDDSRPSGIPERFSGSSSGGTATLTISGAQAEDEDDYYCQSTDSSGNTVFGGGTRLTVL
notes: llama Fab (VH-CH1, lambda VL-CL) with MYC flag, crude periplasmic extract
ELISA OD450 [1]: 0.561 AU
ELISA OD450 [2]: 0.543 AU

B2: Fab 76H10 (Fab, V domains shown)
VH: QLQLVESGGGLVQPGGSLRVSCTASGFTFNTYYMTWVRQAPGKGLEWVSDINSGGGTYYADSVKGRFTISRDNAKNTLYLQMNSLKPEDTALYYCVRVRIWPVGYDYWGQGTQVTVSS
VL: QAVVTQEPSLSVSPGGTVTLTCGLSSGSVTTSNYPGWFQQTPGQAPRTLIYNTNNRHSGVPSRFSGSISGNKAALTITGAQPEDEADYYCSLYTGSYTTVFGGGTHLTVL
notes: as for B1
ELISA OD450 [1]: 3.7 AU
ELISA OD450 [2]: 3.7 AU

B3: Fab 74C8 (Fab, V domains shown)
VH: EVQLVESGGGLVQPGGSLRLSCAASGFTFRNYHMSWVRQVPGKGFEWISDINSAGGSTYYADSVKGRFTISRDNAKNTLYLEMNSLKPEDTALYYCARVNVWGVNYWGKGTLVSVSS
VL: B2 VL with A2T, N55S, T94P, T99N
notes: as for B1
ELISA OD450 [1]: 2.98 AU
ELISA OD450 [2]: 2.92 AU

B4: Fab 76G7 (Fab, V domains shown)
VH: QVQLVESGGNLVQPGGSLRLSCAASGFTFSNYYMSWVRQAPGKGLEWVSDIYSDGSTTWYSDSVKGRFTISRDNAKNTLSLQMNSLKSEDTAVYYCARVKIYPGGYDAWGQGTQVTVSS
VL: QAGLTQPPSVSGSPGKTVTISCAGNSSDVGYGNYVSWYQQFPGMAPKLLIYLVNKRASGITDRFSGSKSGNTASLTISGLQSEDEADYYCASYTGSNNIVFGGGTHLTVL
notes: as for B1
ELISA OD450 [1]: 3.2 AU
ELISA OD450 [2]: 3.08 AU

B5: chimeric llama-human IgG1 mAb 72F8 (antibody, V domains shown)
VH: ELQLVESGGGLVQPGGSLRLSCAASGFTFSNYVMSWVRQAPGKGLEWVSDTNSGGSTSYADSVKGRFTISRDNAKNTLYLQMNSLKPEDTALYYCARSFFYGMNYWGKGTQVTVSS
VL: QSALTQPPSLSASPGSSVRLTCTLSSGNNIGSYDISWYQQKAGSPPRYLLNYYTDSRKHQDSGVPSRFSGSKDASANAGLLLISGLQPEDEADYYCSAYKSGSYRWVFGGGTHVTVL
protection from staurosporine, viability EC50, MLP29 [3]: > 32 nM
protection from staurosporine, viability EMAX, MLP29 [3]: 43.8%
protection from staurosporine, viability EC50, MCF10A [4]: > 32 nM
protection from staurosporine, viability EMAX, MCF10A [4]: 35.8%
IMAX (maximum % competition) [5]: 77.3%
cell scattering score, MLP29, 0.001 nM [6]: 0 score 0-4
cell scattering score, MLP29, 0.004 nM [6]: 0 score 0-4
cell scattering score, MLP29, 0.012 nM [6]: 0 score 0-4
cell scattering score, MLP29, 0.037 nM [6]: 0 score 0-4
cell scattering score, MLP29, 0.111 nM [6]: 0 score 0-4
cell scattering score, MLP29, 0.333 nM [6]: 0 score 0-4
cell scattering score, MLP29, 1.000 nM [6]: 1 score 0-4
cell scattering score, MLP29, 3.000 nM [6]: 2 score 0-4
cell scattering score, MLP29, 9.000 nM [6]: 3 score 0-4
cell scattering score, HPAF-II, 0.001 nM [7]: 0 score 0-4
cell scattering score, HPAF-II, 0.004 nM [7]: 0 score 0-4
cell scattering score, HPAF-II, 0.012 nM [7]: 0 score 0-4
cell scattering score, HPAF-II, 0.037 nM [7]: 0 score 0-4
cell scattering score, HPAF-II, 0.111 nM [7]: 0 score 0-4
cell scattering score, HPAF-II, 0.333 nM [7]: 0 score 0-4
cell scattering score, HPAF-II, 1.000 nM [7]: 1 score 0-4
cell scattering score, HPAF-II, 3.000 nM [7]: 2 score 0-4
cell scattering score, HPAF-II, 9.000 nM [7]: 3 score 0-4
EMAX (% relative to control) [8]: 156%
IMAX (maximum % competition) [9]: 72.8%
EMAX (% relative to control) [10]: 172%

B6: Fab 72F8 (Fab, V domains shown)
VH: B5 VH
VL: B5 VL
notes: as for B1
ELISA OD450 [1]: 3.38 AU
ELISA OD450 [2]: 3.08 AU

B7: Fab 71A3 (Fab, V domains shown)
VH: EVQLVESGGGLVQPGGSLRLSCAASGFSFKDYDITWVRQAPGKGLEWVSTITSRSGSTSYVDSVKGRFTISGDNAKNTLYLQMNSLKPEDTAVYYCAKVYATTWDVGPLGYGMDYWGKGTLVTVSS
VL: SYELTQPSALSVTLGQTAKITCQGGSLGSSYAHWYQQKPGQAPVLVIYDDDSRPSGIPERFSGSSSGGTATLTISGAQAEDEGDYYCQSADSSGNAAVFGGGTHLTVL
notes: as for B1
ELISA OD450 [1]: 0.581 AU
ELISA OD450 [2]: 0.524 AU

B8: Fab 71D6 (Fab, V domains shown)
VH: ELQLVESGGGLVQPGGSLRLSCAASGFTFSSYGMSWVRQAPGKGLEWVSAINSYGGSTSYADSVKGRFTISRDNAKNTLYLQMNSLKPEDTAVYYCAKEVRADLSRYNDYESYDYWGQGTQVTVSS
VL: QPVLNQPSALSVTLGQTAKITCQGGSLGARYAHWYQQKPGQAPVLVIYDDDSRPSGIPERFSGSSSGGTATLTISGAQAEDEGDYYCQSADSSGSVFGGGTHLTVL
notes: as for B1
ELISA OD450 [1]: 3.26 AU
ELISA OD450 [2]: 3.07 AU

B9: Fab 71C3 (Fab, V domains shown)
VH: B8 VH with E1Q, Y32H, G33A, Y54G, V100L, A102F, S105A, N108T, S112A, Y113W
VL: B7 VL
notes: as for B1
ELISA OD450 [1]: 1.65 AU
ELISA OD450 [2]: 1.64 AU

B10: Fab 71D4 (Fab, V domains shown)
VH: B8 VH with S31G, A50D, Y54G, E99D, V100M, A102L, D103Y, S105A, S112A, Y113W
VL: B7 VL with Y2S, E3A
notes: as for B1
ELISA OD450 [1]: 0.311 AU
ELISA OD450 [2]: 0.307 AU

B11: Fab 71G3 (Fab, V domains shown)
VH: QVQLVESGGGLVQPGGSLRVSCAASGFTFSTYYMSWVRQAPGKGLEWVSDIRTDGGTYYADSVKGRFTMSRDNAKNTLYLQMNSLKPEDTALYYCARTRIFPSGYDYWGQGTQVTVSS
VL: QAVVTQEPSLSVSPGGTVTLTCGLSSGSVTTSNYPGWFQQTPGQAPRTLIYNTNSRHSGVPSRFSGSISGNKAALTIMGAQPEDEADYYCSLYPGSTTVFGGGTHLTVL
notes: as for B1
ELISA OD450 [1]: 3.46 AU
ELISA OD450 [2]: 3.44 AU
